Experiments:
[1] = target: T1, Human CD40-his (Homo sapiens, UniProt P25942); experiment: Octet kinetics of humanized C1H1 antibodies; format: binding; details: Table 3, Octet; for Ka: humanized antibodies in cell supernatant, chimeric and benchmark 5 μg/mL
T1 construct: His; purchased Acro biosystems CD0-H5228
Procedure: After six days of culture in a shake flask, the cell supernatant containing the humanized antibodies huC1H1-V1 to huC1H1-V4 was harvested and the binding affinity of the antibodies to human CD40 was determined on an Octet system (Fortebio, Octet RED 96) according to the following procedures. Briefly, an anti-human IgG Fc capture (AHC) biosensor (from ForteBio) was pre-soaked in a 10 mM glycine solution (pH 1.5) for 3 s, and then soaked in a running buffer (PBST containing 0.5% w/v of BSA) for 3 s. The pre-soaking and soaking procedures were repeated 3 times. Then, the sensor was soaked in the cell supernatant containing the humanized anti-CD40 antibody, chimeric antibody C1H1 dissolved in HBS-EP^+ buffer at a concentration of 5 μg/mL, or the benchmark dissolved in HBS-EP^+ buffer at a concentration of 5 μg/mL for 120 s, and then soaked in the running buffer for 5 min. The new baseline was run in the running buffer for 180 s. The sensor was then soaked for 120 s in human CD40-his protein (Acro biosystems, Cat. No. CD0-H5228) 2-fold serially diluted from 40 nM in the running buffer and for 10 min in the running buffer […]. Finally, the sensor was pre-soaked in a 10 mM glycine solution (pH 1.5) for 3 s, and then soaked in the running buffer for 3 s. The pre-soaking and soaking procedures were repeated 3 times. The association and dissociation curves were fitted to a 1:1 Langmuir binding model using ForteBio Data Analysis 8.1.

[2] = target: T1, Human CD40-his; experiment: Biacore surface plasmon resonance affinity and binding kinetics; details: for Kd: dissociation rate
Description: (§1) The affinity and binding kinetics of the anti-CD40 antibody in the present application were characterized by a Biacore T200 system (GE Healthcare, Pittsburgh, PA, USA).
(§2) Briefly, a goat anti-human IgG (GE Healthcare, Cat. No. BR100839, human antibody capture kit) was covalently linked to a CM5 chip (GE Healthcare, Cat. No. BR100530, carboxymethylated dextran-coated chip) via the primary amine group using a standard amine coupling kit supplied by Biacore (GE Healthcare, Pittsburgh, PA, USA). Unreacted portions on the biosensor surface were blocked with ethanolamine. Then, the anti-CD40 antibody of the present application and two benchmark antibodies (BM1 (dacetuzumab, Genentech Inc., also referred to CD40-BM1, prepared in-house; the heavy and light chain amino acid sequences are set forth in SEQ ID NOs: 40 and 41, respectively) and BM2 (selicrelumab, Abgenix Inc., also referred to CD40-BM2, prepared in-house; the heavy and light chain amino acid sequences are set forth in SEQ ID NOS: 42 and 43, respectively)) at a concentration of 66.67 nM were directed through the chip at a flow rate of 10 μL/min. Then, serially diluted recombinant human CD40-his (Acro biosystems, Cat. No. CD0-H5228, serially 2-fold diluted from 80 nM in HBS-EP^+ buffer (supplied by Biacore)) or cynomolgus monkey CD40-his protein (Acro biosystems, Cat. No. CD0-C52H6, serially 2-fold diluted from 80 nM in HBS-EP^+ buffer (supplied by Biacore)) was directed through the chip at a flow rate of 30 μL/min. The antigen-antibody binding kinetics was tracked for 2 min and the dissociation kinetics was tracked for 10 min. The association and dissociation curves were fitted to a 1:1 Langmuir binding model using BIAcore evaluation software. KD, Ka, and Kd values were determined.

[3] = tested on: Cynomolgus monkey CD40-his; experiment: as above; details: for Kd: dissociation rate
Description: as §1, §2

[4] = target: human CD40-Fc protein (Homo sapiens, UniProt P25942); experiment: Capture ELISA binding; details: in words, FIGS. 1A-1C
Procedure: For capture ELISA, an affinity-purified goat anti-human IgG (F(ab′)2 fragment-specific, Jackson Immuno Research, Cat. No. 109-005-097) in PBS at a concentration of 2 μg/mL was immobilized on a 96-well plate at 100 μL/well and incubated overnight at 4° C. The plate was washed once with a washing buffer (PBS+0.05% v/v of Tween-20, PBST) and then blocked with 200 μL/well blocking buffer (PBST containing 5% w/v of skim milk) for 2 h at 37° C. The plate was washed 4 times, and the anti-CD40 antibody of the present application, BM1, BM2, and a negative control hIgG (human immunoglobulin for intravenous injection (pH 4), Hualan Biological Engineering Inc.) serially 5-fold diluted from 66.7 nM in a PBST containing 2.5% w/v of skim milk was added at 100 μL per well. The plate was incubated for 40 min at 37° C. and washed 4 times. A biotinylated human CD40-Fc protein (amino acid residues 21-193 of SEQ ID NO: 30 linked to the N terminus of amino acid residues 99-330 of SEQ ID NO: 28, dissolved in PBST containing 2.5% w/v of skim milk at a concentration of 1.15 nM) was added at 100 μL/well to a 96-well plate coated with the anti-CD40 antibody. The plate was incubated at 37° C. for 40 min and washed 4 times. An HRP-labeled streptavidin (diluted at 1:10000 in PBST, Jackson Immuno Research, Cat. No. 016-030-084) was added at 100 μL/well, and the plate was incubated at 37° C. for another 40 min. […]

[5] = Table 2, Biacore, association rate
[6] = Table 5, Biacore, purified antibodies

T1 sequence (P25942 21-277): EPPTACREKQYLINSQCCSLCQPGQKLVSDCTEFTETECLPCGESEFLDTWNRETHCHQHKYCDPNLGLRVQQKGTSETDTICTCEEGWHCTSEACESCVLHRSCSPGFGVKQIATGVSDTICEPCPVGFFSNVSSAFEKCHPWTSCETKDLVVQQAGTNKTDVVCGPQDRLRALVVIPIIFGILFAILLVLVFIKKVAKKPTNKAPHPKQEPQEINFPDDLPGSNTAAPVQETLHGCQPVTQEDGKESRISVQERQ
human CD40-Fc protein, sequence (P25942 21-193): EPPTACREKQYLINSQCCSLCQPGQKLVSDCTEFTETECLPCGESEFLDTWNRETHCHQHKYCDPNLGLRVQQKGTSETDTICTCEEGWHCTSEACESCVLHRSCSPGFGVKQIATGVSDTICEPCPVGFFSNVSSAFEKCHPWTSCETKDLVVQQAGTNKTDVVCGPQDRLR

Molecule	Kd ([1]; dissociation rate)	Ka [1]	Kd ([1]; read-out: KD)	Ka [2, 5]	Kd ([2]; Table 2, Biacore)	Kd ([2]; Table 5, Biacore)	Ka [2, 6]	Ka [3, 5]	Kd ([3]; Table 2, Biacore)	Kd ([3]; Table 5, Biacore)	Ka [3, 6]	Binding ability to human CD40 in capture ELISA [4]
Chimeric C1H1: C1H1 variable regions (SEQ ID NOs: 19, 23) on human IgG1 heavy chain and human κ light chain constant regions (antibody, V domains shown, human IgG1 and kappa constant regions; VH of mouse and chimeric C1H1 antibodies; VL of mouse and chimeric C1H1 antibodies) VH: EVKLVESGGGLVKPGASLKLSCAASGFTFSNYGISWVRQTSDKRLEWVASISSGGDNTYYPDNVKGRFTISRENAKNTLYLQMSSLKSEDTALYYCARAGEKAMDYWGQGTSVTVSS VL: DIVLTQSPVTLSVTPGDSVSLSCRASQTINNNLHWYQQKSHESPRLLIKYASQSISGIPSRFSGSGSGTDFTLSINSVETEDFGIYFCQQFSSWPLTFGAGTKLELK	0.000929 s⁻¹	1.47e+06 M⁻¹ s⁻¹		1.82e+06 M⁻¹ s⁻¹	0.001567 s⁻¹	0.002221 s⁻¹	2.51e+06 M⁻¹ s⁻¹	1.39e+06 M⁻¹ s⁻¹	0.001478 s⁻¹	0.002147 s⁻¹	2.54e+06 M⁻¹ s⁻¹	higher binding affinity and ability to human CD40
Mouse C1H1: mouse anti-CD40 monoclonal antibody, VH SEQ ID NO: 19, VL SEQ ID NO: 23 (antibody, V domains shown, VH of mouse and chimeric C1H1 antibodies; VL of mouse and chimeric C1H1 antibodies) VH: EVKLVESGGGLVKPGASLKLSCAASGFTFSNYGISWVRQTSDKRLEWVASISSGGDNTYYPDNVKGRFTISRENAKNTLYLQMSSLKSEDTALYYCARAGEKAMDYWGQGTSVTVSS VL: DIVLTQSPVTLSVTPGDSVSLSCRASQTINNNLHWYQQKSHESPRLLIKYASQSISGIPSRFSGSGSGTDFTLSINSVETEDFGIYFCQQFSSWPLTFGAGTKLELK				1.79e+06 M⁻¹ s⁻¹	0.001227 s⁻¹	0.000897 s⁻¹	2.1e+06 M⁻¹ s⁻¹	1.39e+06 M⁻¹ s⁻¹	0.001184 s⁻¹	0.000863 s⁻¹	2.29e+06 M⁻¹ s⁻¹	

The next lines start with results.

Kd ([1]; dissociation rate)	Ka [1]	Kd ([1]; read-out: KD)	Ka [2, 5]	Kd ([2]; Table 2, Biacore)	Kd ([2]; Table 5, Biacore)	Ka [2, 6]	Ka [3, 5]	Kd ([3]; Table 2, Biacore)	Kd ([3]; Table 5, Biacore)	Ka [3, 6]	Molecule	Binding ability to human CD40 in capture ELISA [4]
0.00283 s⁻¹	523000 M⁻¹ s⁻¹	5.41 nM									huC1H1-V3: humanized C1H1 anti-CD40 antibody, VH SEQ ID NO: 20 X1=A, VL SEQ ID NO: 24 X1=Y X2=Y, human IgG2/κ (antibody, V domains shown, not fully specified; variable positions X1=A; VL X1=Y X2=Y; IgG2/kappa constant; VH of huC1H1-V1 to huC1H1-V4; VARIANT 49 X can be A or S; VL of huC1H1-V1 to huC1H1-V4; VARIANT 49 X can be K or Y; VARIANT 87 X can be F or Y) VH: EVQLVESGGGLVKPGGSLRLSCAASGFTFSNYGISWVRQAPGKGLEWVXSISSGGDNTYYPDNVKGRFTISRDNAKNSLYLQMNSLRAEDTAVYYCARAGEKAMDYWGQGTLVTVSS VL: EIVLTQSPATLSLSPGERATLSCRASQTINNNLHWYQQKPGQAPRLLIXYASQSISGIPARFSGSGSGTDFTLTISSLEPEDFAVYXCQQFSSWPLTFGGGTKVEIK	
0.00367 s⁻¹	424000 M⁻¹ s⁻¹	8.66 nM									huC1H1-V4: humanized C1H1 anti-CD40 antibody, VH SEQ ID NO: 20 X1=S, VL SEQ ID NO: 24 X1=Y X2=Y, human IgG2/κ (antibody, V domains shown, not fully specified; variable positions X1=S; VL X1=Y X2=Y; IgG2/kappa constant; VH of huC1H1-V1 to huC1H1-V4; VARIANT 49 X can be A or S; VL of huC1H1-V1 to huC1H1-V4; VARIANT 49 X can be K or Y; VARIANT 87 X can be F or Y) VH: EVQLVESGGGLVKPGGSLRLSCAASGFTFSNYGISWVRQAPGKGLEWVXSISSGGDNTYYPDNVKGRFTISRDNAKNSLYLQMNSLRAEDTAVYYCARAGEKAMDYWGQGTLVTVSS VL: EIVLTQSPATLSLSPGERATLSCRASQTINNNLHWYQQKPGQAPRLLIXYASQSISGIPARFSGSGSGTDFTLTISSLEPEDFAVYXCQQFSSWPLTFGGGTKVEIK	

— patent publication US20240398942A1, “USE OF ANTI-CD40 ANTIBODY” (CHIA TAI TIANQING PHARMACEUTICAL GROUP CO., LTD., priority 2021, published 2024)
